We go through two substances from patent US20040038236A1.

Experiment [1] deals with GABAA receptor alpha-1 subunit (GABRA1) (human) (UniProt P14867). The experiment is described as follows: cell-based or functional assay.
For experiment [2], the target named is GABAA receptor beta-2 subunit (GABRB2) (human) (UniProt P47870). Briefly: cell-based or functional assay.
GABAA receptor beta-2 subunit (GABRB2) (human), sequence (P47870 26-512): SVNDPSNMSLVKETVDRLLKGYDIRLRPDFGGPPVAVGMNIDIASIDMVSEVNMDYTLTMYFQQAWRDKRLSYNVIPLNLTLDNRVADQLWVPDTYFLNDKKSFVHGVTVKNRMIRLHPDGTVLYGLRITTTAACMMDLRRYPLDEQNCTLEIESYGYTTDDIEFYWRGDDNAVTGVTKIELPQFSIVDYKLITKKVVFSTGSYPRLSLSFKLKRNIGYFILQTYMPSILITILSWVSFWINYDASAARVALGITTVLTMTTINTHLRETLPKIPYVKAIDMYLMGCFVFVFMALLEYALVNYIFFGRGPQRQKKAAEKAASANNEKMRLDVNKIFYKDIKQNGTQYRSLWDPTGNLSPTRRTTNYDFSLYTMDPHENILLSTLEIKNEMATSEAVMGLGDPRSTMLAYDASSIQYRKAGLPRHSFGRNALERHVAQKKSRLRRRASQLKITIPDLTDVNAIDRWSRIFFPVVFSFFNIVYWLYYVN

GABAA receptor alpha-1 subunit (GABRA1) (human), sequence (P14867 28-456): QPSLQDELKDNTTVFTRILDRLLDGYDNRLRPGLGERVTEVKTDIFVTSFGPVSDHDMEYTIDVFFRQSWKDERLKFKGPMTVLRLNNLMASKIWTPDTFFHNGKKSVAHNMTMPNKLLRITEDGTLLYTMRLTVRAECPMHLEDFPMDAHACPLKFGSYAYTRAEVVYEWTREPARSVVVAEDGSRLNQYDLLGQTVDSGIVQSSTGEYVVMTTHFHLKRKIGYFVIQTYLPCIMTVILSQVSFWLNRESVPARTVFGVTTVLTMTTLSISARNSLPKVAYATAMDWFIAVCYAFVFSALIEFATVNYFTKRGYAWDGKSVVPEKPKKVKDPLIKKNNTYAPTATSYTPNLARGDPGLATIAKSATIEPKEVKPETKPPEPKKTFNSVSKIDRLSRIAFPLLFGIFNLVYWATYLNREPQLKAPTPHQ

In the case of “GABAA receptor gamma-2 subunit R43Q mutant, GABRG2(R43Q) (from UniProt P18507 40-475)”, the partial inhibition of the GABA current by Zn2+ (10 µM), Xenopus oocytes, two-electrode voltage clamp in experiment [1] and in experiment [2] was 40% each time.
As for “wild-type GABAA receptor gamma-2 subunit (GABRG2) (from UniProt P18507 40-475)”, the partial inhibition of the GABA current by Zn2+ (10 µM), Xenopus oocytes, two-electrode voltage clamp in experiment [1] and in experiment [2] was 37% in each case.
